Test results from the supplement of paper PMC11246515.
± gives the standard deviation of the averaged measurements.

Assay: total protein half-life in vivo (active degradation + dilution); higher = more stable protein
[1] = E. coli NCM3722 delta-smpB, growth: N-lim chemostat, doubling time 6 h
[2] = wild type E. coli NCM3722, growth: C-lim chemostat, doubling time 3 h
[3] = wild type E. coli NCM3722, growth: C-lim chemostat, doubling time 6 h
[4] = wild type E. coli NCM3722, growth: C-lim chemostat, doubling time 12 h
[5] = wild type E. coli NCM3722, growth: N-lim chemostat, doubling time 6 h
[6] = wild type E. coli NCM3722, growth: N-lim chemostat, doubling time 12 h
[7] = wild type E. coli NCM3722, growth: P-lim chemostat, doubling time 6 h
[8] = wild type E. coli NCM3722, growth: P-lim chemostat, doubling time 12 h
[9] = E. coli NCM3722 delta-clpP delta-lon delta-hslV, growth: N-lim chemostat, doubling time 6 h
[10] = E. coli NCM3722 delta-clpP, growth: N-lim chemostat, doubling time 6 h
[11] = E. coli NCM3722 delta-hslV, growth: N-lim chemostat, doubling time 6 h
[12] = E. coli NCM3722 delta-lon, growth: N-lim chemostat, doubling time 6 h

Row | Sequence | total protein half-life in vivo [1] [h] | total protein half-life in vivo [2] [h] | total protein half-life in vivo [3] [h] | total protein half-life in vivo [4] [h] | total protein half-life in vivo [5] [h] | total protein half-life in vivo [6] [h] | total protein half-life in vivo [7] [h] | total protein half-life in vivo [8] [h] | total protein half-life in vivo [9] [h] | total protein half-life in vivo [10] [h] | total protein half-life in vivo [11] [h] | total protein half-life in vivo [12] [h]
1 | MRNKPFYLLCAFLWLAVSHALAADSTITIRGYVRDNGCSVAAESTNFTVDLMENAAKQFNNIGATTPVVPFRILLSPCGNAVSAVKVGFTGVADSHNANLLALENTVSAASGLGIQLLNEQQNQIPLNAPSSALSWTTLTPGKPNTLNFYARLMATQVPVTAGHINATATFTLEYQ | 5.58 ± 0.25 | 2.61 | 5.55 | 15.7 | > 8 | 13.4 | 5.52 | 9.2 | – | – | – | –
2 | MRNLVKYVGIGLLVMGLAACDDKDTNATAQGSVAESNATGNPVNLLDGKLSFSLPADMTDQSGKLGTQANNMHVWSDATGQKAVIVIMGDDPKEDLAVLAKRLEDQQRSRDPQLQVVTNKAIELKGHKMQQLDSIISAKGQTAYSSVILGNVGNQLLTMQITLPADDQQKAQTTAENIINTLVIQ [P0AEE1] | 6.05 ± 1.3 | – | – | 11.3 ± 1 | 5.6 ± 0.16 | 10.9 ± 0.59 | 5.55 ± 1.2 | 10.9 ± 0.47 | 6.11 ± 1.1 | 5.96 ± 0.21 | 5.42 ± 0.085 | 6.24 ± 0.22
3 | MRNRTLADLDRVVALGGGHGLGRVLSSLSSLGSRLTGIVTTTDNGGSTGRIRRSEGGIAWGDMRNCLNQLITEPSVASAMFEYRFGGNGELSGHNLGNLMLKALDHLSVRPLEAINLIRNLLKVDTHLIPMSEHPVDLMAIDDQGHEVYGEVNIDQLTTPIQELLLTPNVPATREAVHAINEADLIIIGPGSFYTSLMPILLLKEIAQALRRTPAPMVYIGNLGRELSLPAANLKLESKLAIMEQYVGKKVIDAVIVGPKVDVSAVKERIVIQEVLEASDIPYRHDRQLLHNALEKALQALG | 4.5 ± 0.17 | 3.16 ± 0.085 | 5.45 ± 0.32 | 10.3 ± 1.7 | 4.6 ± 0.073 | 7.33 ± 0.076 | 6.31 ± 0.59 | 12.1 ± 0.98 | 4.62 ± 0.5 | 4.2 ± 0.13 | 4.3 ± 0.14 | 5.33 ± 0.18
4 | MRNTLIPILVAICLFITGVAILNIQLWYSAKAEYLAGARYAANNINHILEEASQATQTAVNIAGKECNLEEQYQLGTEAALKPHLRTIIILKQGIVWCTSLPGNRVLLSRIPVFPDSNLLLAPAIDTVNRLPILLYQNQFADTRILVTISDQHIRGALNVPLKGVRYVLRVADDIIGPTGDVMTLNGHYPYTEKVHSTKYHFTIIFNPPPLFSFYRLIDKGFGILIFILLIACAAAFLLDRYFNKSATPEEILRRAINNGEIVPFYQPVVNGREGTLRGVEVLARWKQPHGGYISPAAFIPLAEKSGLIVPLTQSLMNQVARQMNAIASKLPEGFHIGINFSASHIISPTFVDECLNFRDSFTRRDLNLVLEVTEREPLNVDESLVQRLNILHENGFVIALDDFGTGYSGLSYLHDLHIDYIKIDHSFVGRVNADPESTRILDCVLDLARKLSISIVAEGVETKEQLDYLNQNYITFQQGYYFYKPVTYIDLVKIILSKPKVKVVVE | 6.19 ± 0.68 | – | – | – | 4.59 | 11.9 ± 0.31 | – | – | 3.79 | – | – | 4.37
5 | MRQTKTGILLANLGTPDAPTPEAVKRYLKQFLSDRRVVDTSRLLWWPLLRGVILPLRSPRVAKLYASVWMEGGSPLMVYSRQQQQALAQRLPEMPVALGMSYGSPSLESAVDELLAEHVDHIVVLPLYPQFSCSTVGAVWDELARILARKRSIPGISFIRDYADNHDYINALANSVRASFAKHGEPDLLLLSYHGIPQRYADEGDDYPQRCRTTTRELASALGMAPEKVMMTFQSRFGREPWLMPYTDETLKMLGEKGVGHIQVMCPGFAADCLETLEEIAEQNREVFLGAGGKKYEYIPALNATPEHIEMMANLVAAYR | 5.63 ± 0.32 | 2.96 ± 0.033 | 6.24 ± 0.92 | 10.5 ± 2.5 | 5.33 ± 0.98 | 12.1 ± 0.19 | 5.73 ± 0.36 | 12.2 ± 1.5 | – | 6.11 ± 0.13 | 6.43 ± 0.78 | 5.98 ± 0.68
6 | MRRFFWLVAAALLLAGCAGEKGIVEKEGYQLDTRRQAQAAYPRIKVLVIHYTADDFDSSLATLTDKQVSSHYLVPAVPPRYNGKPRIWQLVPEQELAWHAGISAWRGATRLNDTSIGIELENRGWQKSAGVKYFAPFEPAQIQALIPLAKDIIARYHIKPENVVAHADIAPQRKDDPGPLFPWQQLAQQGIGAWPDAQRVNFYLAGRAPHTPVDTASLLELLARYGYDVKPDMTPREQRRVIMAFQMHFRPTLYNGEADAETQAIAEALLEKYGQD | 5.75 ± 0.39 | 3.0599 ± 3.5e-05 | – | 11.2 ± 0.38 | – | 12.4 ± 0.43 | 5.63 ± 1.1 | 13.9 ± 1.3 | 6.4 ± 0.46 | 6.3559 ± 0.0044 | 6.75 ± 0.56 | 7.41 ± 0.34
7 | MRRFLTTLMILLVVLVAGLSALVLLVNPNDFRDYMVKQVAARSGYQLQLDGPLRWHVWPQLSILSGRMSLTAQGASQPLVRADNMRLDVALLPLLSHQLSVKQVMLKGAVIQLTPQTEAVRSEDAPVAPRDNTLPDLSDDRGWSFDISSLKVADSVLVFQHEDDEQVTIRNIRLQMEQDPQHRGSFEFSGRVNRDQRDLTISLNGTVDASDYPHDLTAAIEQINWQLQGADLPKQGIQGQGSFQAQWQESHKRLSFNQISLTANDSTLSGQAQVTLTEKPEWQLRLQFPQLNLDNLIPLNETANGENGAAQQGQSQSTLPRPVISSRIDEPAYQGLQGFTADILLQASNVRWRGMNFTDVATQMTNKSGLLEITQLQGKLNGGQVSLPGTLDATSINPRINFQPRLENVEIGTILKAFNYPISLTGKMSLAGDFSGADIDADAFRHNWQGQAHVEMTDTRMEGMNFQQMIQQAVERNGGDVKAAENFDNVTRLDRFTTDLTLKDGVVTLNDMQGQSPVLALTGEGMLNLADQTCDTQFDIRVVGGWNGESKLIDFLKETPVPLRVYGNWQQLNYSLQVDQLLRKHLQDEAKRRLNDWAERNKDSRNGKDVKKLLEKM | 6.43 ± 0.59 | 3.54 ± 0.42 | 6.18 ± 0.13 | 11.4 ± 0.47 | 6.231 ± 0.012 | 13 ± 0.012 | 6.266 ± 0.044 | 11.5 ± 0.13 | 6.52 ± 0.57 | – | 6.45 ± 0.47 | 6.24 ± 0.085
8 | MRTISYSEARQNLSATMMKAVEDHAPILITRQNGEACVLMSLEEYNSLEETAYLLRSPANARRLMDSIDSLKSGKGTEKDIIE | 3.15 | > 4 | 1.57 ± 0.23 | 2.2 ± 1.2 | 1.8 | 2.86 ± 0.17 | 1.67 | 3.61 ± 0.31 | 2.74 | 2 ± 0.78 | 2.66 ± 0.31 | –
